Test results from IntAct's records for PubMed 35512704.

B1: Mothers against decapentaplegic homolog 4 (Homo sapiens), Q13485 (parent)
chain: MDNMSITNTPTSNDACLSIVHSLMCHRQGGESETFAKRAIESLVKKLKEKKDELDSLITAITTNGAHPSKCVTIQRTLDGRLQVAGRKGFPHVIYARLWRWPDLHKNELKHVKYCQYAFDLKCDSVCVNPYHYERVVSPGIDLSGLTLQSNAPSSMMVKDEYVHDFEGQPSLSTEGHSIQTIQHPPSNRASTETYSTPALLAPSESNATSTANFPNIPVASTSQPASILGGSHSEGLLQIASGPQPGQQQNGFTGQPATYHHNSTTTWTGSRTAPYTPNLPHHQNGHLQHHPPMPPHPGHYWPVHNELAFQPPISNHPAPEYWCSIAYFEMDVQVGETFKVPSSCPIVTVDGYVDPSGGDRFCLGQLSNVHRTEAIERARLHIGKGVQLECKGEGDVWVRCLSDHAVFVQSYYLDREAGRAPGDAVHKIYPSAYIKVFDLRQCHRQMQQQAATAQAAAAAQAAAVAGNIPGPGSVGGIAPAISLSAAAGIGVDDLRRLCILRMSFVKGWGPDYPRQSIKETPCWIEIHLHRALQLLDEVLHTMPIADPQPLD
partner: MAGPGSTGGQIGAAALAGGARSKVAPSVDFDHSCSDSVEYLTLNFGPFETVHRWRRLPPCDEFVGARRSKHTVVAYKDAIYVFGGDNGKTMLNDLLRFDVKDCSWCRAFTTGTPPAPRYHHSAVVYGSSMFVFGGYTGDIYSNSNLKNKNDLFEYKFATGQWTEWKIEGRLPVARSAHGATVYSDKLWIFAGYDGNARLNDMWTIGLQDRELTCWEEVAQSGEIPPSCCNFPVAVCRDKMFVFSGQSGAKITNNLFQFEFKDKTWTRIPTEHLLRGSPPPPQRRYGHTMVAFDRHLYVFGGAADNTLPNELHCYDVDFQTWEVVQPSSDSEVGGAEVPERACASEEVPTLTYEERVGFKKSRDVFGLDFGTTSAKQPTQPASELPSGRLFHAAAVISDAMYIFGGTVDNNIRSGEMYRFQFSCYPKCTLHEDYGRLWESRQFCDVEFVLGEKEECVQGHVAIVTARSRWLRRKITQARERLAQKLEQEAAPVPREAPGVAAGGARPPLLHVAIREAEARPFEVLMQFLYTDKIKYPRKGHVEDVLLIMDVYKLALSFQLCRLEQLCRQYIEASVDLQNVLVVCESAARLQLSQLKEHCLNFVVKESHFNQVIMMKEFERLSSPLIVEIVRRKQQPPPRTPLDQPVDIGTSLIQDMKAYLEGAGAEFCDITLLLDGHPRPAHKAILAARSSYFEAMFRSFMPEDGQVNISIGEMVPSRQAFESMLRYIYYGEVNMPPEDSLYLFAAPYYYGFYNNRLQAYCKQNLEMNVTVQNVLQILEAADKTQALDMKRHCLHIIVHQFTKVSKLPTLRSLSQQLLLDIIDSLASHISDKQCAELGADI
B2: Mothers against decapentaplegic homolog 4 (Homo sapiens), Q13485 (parent)
chain: B1 chain
partner: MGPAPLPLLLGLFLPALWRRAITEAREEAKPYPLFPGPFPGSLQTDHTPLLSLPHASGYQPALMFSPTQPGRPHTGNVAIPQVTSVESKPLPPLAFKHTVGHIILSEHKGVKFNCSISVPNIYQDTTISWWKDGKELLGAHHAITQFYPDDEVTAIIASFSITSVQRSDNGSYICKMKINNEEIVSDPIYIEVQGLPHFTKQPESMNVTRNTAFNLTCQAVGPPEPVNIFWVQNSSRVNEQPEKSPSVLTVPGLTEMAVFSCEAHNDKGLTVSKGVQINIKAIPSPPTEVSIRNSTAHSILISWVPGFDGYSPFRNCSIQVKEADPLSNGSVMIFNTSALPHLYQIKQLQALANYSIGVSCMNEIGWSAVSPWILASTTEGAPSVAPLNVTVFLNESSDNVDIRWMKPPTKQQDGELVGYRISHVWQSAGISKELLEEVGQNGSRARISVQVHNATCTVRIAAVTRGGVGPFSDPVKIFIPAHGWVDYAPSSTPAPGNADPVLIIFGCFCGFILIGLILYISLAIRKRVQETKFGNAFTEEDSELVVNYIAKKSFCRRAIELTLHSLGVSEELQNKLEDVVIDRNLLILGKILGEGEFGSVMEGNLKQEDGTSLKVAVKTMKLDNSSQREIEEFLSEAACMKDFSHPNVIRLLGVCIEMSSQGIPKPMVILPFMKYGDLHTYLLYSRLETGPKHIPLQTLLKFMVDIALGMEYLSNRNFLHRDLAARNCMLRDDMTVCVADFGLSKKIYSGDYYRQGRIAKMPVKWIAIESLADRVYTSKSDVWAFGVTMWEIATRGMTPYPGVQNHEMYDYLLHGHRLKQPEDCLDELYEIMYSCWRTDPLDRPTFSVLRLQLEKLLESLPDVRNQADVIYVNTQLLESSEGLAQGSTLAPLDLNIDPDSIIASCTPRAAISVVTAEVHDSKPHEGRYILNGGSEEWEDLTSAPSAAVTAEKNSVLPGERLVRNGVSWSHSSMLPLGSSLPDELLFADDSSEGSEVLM
B3: Mothers against decapentaplegic homolog 4 (Homo sapiens), Q13485 (parent)
chain: B1 chain
partner: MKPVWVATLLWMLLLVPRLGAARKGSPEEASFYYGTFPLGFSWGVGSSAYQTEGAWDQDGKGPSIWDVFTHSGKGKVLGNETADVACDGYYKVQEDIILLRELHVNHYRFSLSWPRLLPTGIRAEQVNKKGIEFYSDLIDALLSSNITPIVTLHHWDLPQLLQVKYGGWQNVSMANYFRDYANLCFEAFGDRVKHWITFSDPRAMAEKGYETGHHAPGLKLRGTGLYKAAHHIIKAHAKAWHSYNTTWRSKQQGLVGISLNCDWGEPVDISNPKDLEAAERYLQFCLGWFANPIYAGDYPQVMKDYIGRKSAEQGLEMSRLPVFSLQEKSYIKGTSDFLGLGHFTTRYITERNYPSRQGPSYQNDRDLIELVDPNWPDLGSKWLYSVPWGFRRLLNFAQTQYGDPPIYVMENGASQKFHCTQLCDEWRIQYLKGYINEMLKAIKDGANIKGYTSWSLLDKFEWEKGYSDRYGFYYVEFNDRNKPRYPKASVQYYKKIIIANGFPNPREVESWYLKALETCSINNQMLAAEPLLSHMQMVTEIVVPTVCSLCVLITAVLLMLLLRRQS
B4: Mothers against decapentaplegic homolog 4 (Homo sapiens), Q13485 (parent)
chain: B1 chain
partner: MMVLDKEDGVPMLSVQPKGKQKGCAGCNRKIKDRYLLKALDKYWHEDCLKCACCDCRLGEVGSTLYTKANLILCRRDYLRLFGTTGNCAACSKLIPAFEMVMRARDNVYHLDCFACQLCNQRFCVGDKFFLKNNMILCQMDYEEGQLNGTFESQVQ
B5: Mothers against decapentaplegic homolog 4 (Homo sapiens), Q13485 (parent)
chain: B1 chain
partner: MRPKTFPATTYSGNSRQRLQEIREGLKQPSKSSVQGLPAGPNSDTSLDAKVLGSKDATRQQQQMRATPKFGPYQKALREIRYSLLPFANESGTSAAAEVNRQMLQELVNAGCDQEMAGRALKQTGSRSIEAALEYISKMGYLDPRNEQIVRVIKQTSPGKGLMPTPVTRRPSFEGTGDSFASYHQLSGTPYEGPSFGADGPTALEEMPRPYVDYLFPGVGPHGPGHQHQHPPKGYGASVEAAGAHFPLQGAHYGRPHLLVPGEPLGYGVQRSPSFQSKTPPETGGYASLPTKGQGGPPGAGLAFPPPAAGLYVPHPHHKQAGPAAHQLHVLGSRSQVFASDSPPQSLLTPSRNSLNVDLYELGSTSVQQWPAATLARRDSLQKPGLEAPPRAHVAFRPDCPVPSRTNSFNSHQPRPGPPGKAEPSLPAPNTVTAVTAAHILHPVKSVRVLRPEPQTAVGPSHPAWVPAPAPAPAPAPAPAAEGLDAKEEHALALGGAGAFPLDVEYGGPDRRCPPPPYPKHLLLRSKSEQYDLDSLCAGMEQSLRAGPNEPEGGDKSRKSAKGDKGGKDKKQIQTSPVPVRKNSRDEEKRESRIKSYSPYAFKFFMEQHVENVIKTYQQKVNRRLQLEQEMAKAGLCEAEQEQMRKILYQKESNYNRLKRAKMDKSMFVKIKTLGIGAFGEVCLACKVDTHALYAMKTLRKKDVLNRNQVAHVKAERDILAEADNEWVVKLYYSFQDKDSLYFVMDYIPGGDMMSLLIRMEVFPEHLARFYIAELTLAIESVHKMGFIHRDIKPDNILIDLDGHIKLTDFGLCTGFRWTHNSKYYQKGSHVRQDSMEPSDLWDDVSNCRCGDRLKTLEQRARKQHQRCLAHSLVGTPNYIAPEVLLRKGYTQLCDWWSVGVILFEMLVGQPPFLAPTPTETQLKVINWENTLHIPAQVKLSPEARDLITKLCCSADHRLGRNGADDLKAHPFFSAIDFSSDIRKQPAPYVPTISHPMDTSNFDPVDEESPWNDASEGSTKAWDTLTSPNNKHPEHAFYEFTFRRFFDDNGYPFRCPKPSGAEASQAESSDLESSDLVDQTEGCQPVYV
B6: Mothers against decapentaplegic homolog 4 (Homo sapiens), Q13485 (parent)
chain: B1 chain
partner: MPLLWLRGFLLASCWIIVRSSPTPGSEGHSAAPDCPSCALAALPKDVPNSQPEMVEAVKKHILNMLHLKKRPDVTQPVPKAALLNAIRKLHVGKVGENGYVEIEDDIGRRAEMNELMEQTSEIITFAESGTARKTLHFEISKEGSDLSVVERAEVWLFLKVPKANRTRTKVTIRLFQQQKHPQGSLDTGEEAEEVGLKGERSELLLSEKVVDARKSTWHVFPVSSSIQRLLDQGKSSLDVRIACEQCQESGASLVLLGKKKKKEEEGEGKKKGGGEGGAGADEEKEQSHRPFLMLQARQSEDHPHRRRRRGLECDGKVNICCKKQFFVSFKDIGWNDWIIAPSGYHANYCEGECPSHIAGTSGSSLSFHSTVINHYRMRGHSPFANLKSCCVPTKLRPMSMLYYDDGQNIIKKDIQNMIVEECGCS

Variants of: B1
Details: with lztr1_human LZTR1, Q8N653

Row | Variant | effect of a mutation on the interaction
1 | R361C | with no effect

Variants of: B1
Details: with lztr1_human LZTR1, Q8N653
Remark: another data set of the same source

Row | Variant | effect of a mutation on the interaction
2 | R361C | decreasing interaction strength
3 | R361H | decreasing interaction strength

Variants of: B1
Details: with lztr1_human LZTR1, Q8N653
Remark: another data set of the same source

Row | Variant | effect of a mutation on the interaction
4 | R361H | with no effect

Variants of: B1
Details: with lztr1_human LZTR1, Q8N653
Remark: another data set of the same source

Row | Variant | effect of a mutation on the interaction
5 | G386D | with no effect

Variants of: B1
Details: with lztr1_human LZTR1, Q8N653
Remark: another data set of the same source

Row | Variant | effect of a mutation on the interaction
6 | D351H | with no effect

Variants of: B2
Details: with mertk_human MERTK

Row | Variant | effect of a mutation on the interaction
7 | R361C | with no effect

Variants of: B2
Details: with mertk_human MERTK
Remark: another data set of the same source

Row | Variant | effect of a mutation on the interaction
8 | R361H | with no effect

Variants of: B2
Details: with mertk_human MERTK
Remark: another data set of the same source

Row | Variant | effect of a mutation on the interaction
9 | D351H | with no effect

Variants of: B2
Details: with mertk_human MERTK
Remark: another data set of the same source

Row | Variant | effect of a mutation on the interaction
10 | G386D | with no effect

Variants of: B3
Details: with lctl_human LCTL

Row | Variant | effect of a mutation on the interaction
11 | D351H | with no effect

Variants of: B3
Details: with lctl_human LCTL
Remark: another data set of the same source

Row | Variant | effect of a mutation on the interaction
12 | G386D | with no effect

Variants of: B4
Details: with rbtn1_human LMO1, P25800

Row | Variant | effect of a mutation on the interaction
13 | D351H | with no effect

Variants of: B4
Details: with rbtn1_human LMO1, P25800
Remark: another data set of the same source

Row | Variant | effect of a mutation on the interaction
14 | G386D | with no effect

Variants of: B4
Details: with rbtn1_human LMO1, P25800
Remark: another data set of the same source

Row | Variant | effect of a mutation on the interaction
15 | R361H | with no effect

Variants of: B4
Details: with rbtn1_human LMO1, P25800
Remark: another data set of the same source

Row | Variant | effect of a mutation on the interaction
16 | R361C | with no effect

Variants of: B5
Details: with lats2_human LATS2, Q9NRM7

Row | Variant | effect of a mutation on the interaction
17 | D351H | with no effect

Variants of: B5
Details: with lats2_human LATS2, Q9NRM7
Remark: another data set of the same source

Row | Variant | effect of a mutation on the interaction
18 | R361C | with no effect

Variants of: B5
Details: with lats2_human LATS2, Q9NRM7
Remark: another data set of the same source

Row | Variant | effect of a mutation on the interaction
19 | R361H | with no effect

Variants of: B5
Details: with lats2_human LATS2, Q9NRM7
Remark: another data set of the same source

Row | Variant | effect of a mutation on the interaction
20 | G386D | with no effect

Variants of: B6
Details: with inhba_human INHBA

Row | Variant | effect of a mutation on the interaction
21 | R361C | with no effect

Variants of: B6
Details: with inhba_human INHBA
Remark: another data set of the same source

Row | Variant | effect of a mutation on the interaction
22 | R361H | with no effect

Variants of: B6
Details: with inhba_human INHBA
Remark: another data set of the same source

Row | Variant | effect of a mutation on the interaction
23 | G386D | with no effect
